Measurements: the DeepSol protein solubility set

Assay: soluble on expression in E. coli; label from the status in PepcDB or PDB records

Sequence	soluble on expression in E. coli
MGSDKIHHHHHHMPLLEIKNLTKIFTIGSIFSRTRIVAVDNVNFDINEAEIFTLAGESGCGKTTTAKIILGFEEPTSGEIIYKGRKIDRVHQNEKERRELLKEIQAVFQNPFSTFNPLRKVDRYFYETLFNLGIADTKKKAEEIIKEKLSAVGISFEEFSEKYPSEFSGGQLQRISIARALLTNPSLLVADEPVSMVDASLRMSIVNLFKDLKEQYGVSVLYITHDLTTAYYVSDRIAVMFRGNIVELGPAEKVLMEPKHPYTQLLRESVPEPDPKKKWDIRIKLSETEQAEYLRQGCKFAGRCPKAMDICRKEPPPYFEVDGVQVKCWLYR	not soluble
MYKKRQRGEREREIKVEFAMHISIKTLEGKRIKLEVEDSSNTIDLKIHGEPTRELVVDLSPTPDTGAIMMIFIKTLTGRTNTYEVKGSDTIRELKAKHEEKEGIPVEQQRLIFQGRVLEDSKAISDYNIKHESTLHITLHQCGC	soluble
MGSDKIHHHHHHMADDQEKLLIDEEETVQIKDLNKVTTVNDTDLLLLDDGAASSNAITFKNFLDASKDKIFKGEGLDYFKQIIKSTIAEELAADKDFVEKIYAKITDKLINNDSTNISNLFSKIKSRLTDSISSATLSRSDHLLIMPSSDTIQKTPVPKHILGVPSNLAYGSITRSTTLYPSDYENNAIFINMEDNDDVTLIFSKSYDNSPVYLDIEIQVKINDNRMQKKSLKLQYSDETTYNRVYEIAGPRGLFTRIPIYKGWYVQKRASLYGDPVPDLLKL	not soluble
KKHTGYVGLKNQGATCYMNSLLQTLFFTNQLRKAVYMMPTEGDDSSKSVPLALQRVFYELQHSDKPVGTKKLTKSFGWETLDSFMQHDVQELCRVLLDNVENKMKGTCVEGTIPKLFRGKMVSYIQCKEVDYRSDRREDYYDIQLSIKGKKNIFESFVDYVAVEQLDGDNKYDAGEHGLQEAEKGVKFLTLPPVLHLQLMRFMYDPQTDQNIKINDRFEFPEQLPLDEFLQKTDPKDPANYILHAVLVHSGDNHGGHYVVYLNPKGDGKWCKFDDDVVSRCTKEEAIEHNYGGHDDDLSVRHCTNAYMLVYIRESKLSEVLQAVTDHDIPQQLVERLQEEKRIEAQKRKERQE	soluble
MGSDKIHHHHHHVDDGPCAARLRWTNSVMTEPLMPQTDVPFDELIIREYLLDNPDFFNRYPELLLAMRLPHMERGAISLVERRQEMLRQRVSQLEEEITSLLTMAARNEKIYQFNTELSFQLLNCADLVSLKEVLADSLKLQFNFSHVRLISVLDTDMKAIWDQRLHKGHYFGRLTQQEAKRLFGSEVGSVALTKLSEDNPVIFAIASQDATHFHPDMDNMLLEQLRRLLAHMLAKL	not soluble
MSELSQLSPQPLWDIFAKICSIPHPSYHEEQLAEYIVGWAKEKGFHVERDQVGNILIRQPATAGMENRKPVVLQAHLDMVPQKNNDTVHDFTKDPIQPYIDGEWVKARGTTLGADNGIGMASALAVLADENVVHGPLEVLLTMTEEAGMDGAFGLQSNWLQADILINTDSEEEGEIYMGCAGGIDFTSNLHLDREAVPAGFETFKLTLKGLKGGHSGGEIHVGLGNANKLLVRFLAGHAEELDLRLIDFNGGTLRNAIPREAFATIAVAADKVDALKSLVNTYQEILKNELAEKEKNLALLLDSVANDKAALIAKSRDTFIRLLNATPNGVIRNSDVAKGVVETSLNVGVVTMTDNNVEIHCLIRSLIDSGKDYVVSMLDSLGKLAGAKTEAKGAYPGWQPDANSPVMHLVRETYQRLFNKTPNIQIIHAGLECGLFKKPYPEMDMVSIGPTITGPHSPDEQVHIESVGHYWTLLTELLKEIPAKLEHHHHHH	soluble
MIVTSLEDLRSRLRAYVSENGLRHTPERYSILEVAYNLKKIFTPDDLFDLTRENGLPVSLSTVYNTLTLLERCGIVLRLPSPETKYQYLMASFAEQCPLLFCTECAQFSTYYRRNVKSILADKDLRPPRFSYRQAIICLYGICDKCRKKQSALKKAADKAAPKKKK	not soluble
MEDEHSRQAYVDQLGLLEEGADEVFEEILAAATSYFQTPIALISILDHQRQWFRASIGLDIRQTPRRDSFCAYAILGKGVFEVADATLDPRFRDNPYVQGEPRIRFYAGAPLATAEGLNLGSLCVIDREPRGPLAERDVAMLEHFARLVMARIHTLRSTNYIDEPTGLYNRLRLQEDVSLRLQRDGALTVIAADLLPLALLNTIIRTLGYPFSNDLMLEARDRIRAELPDFTLYKISPTRFGLLLPRQQQEETESVCLRLLRAFESPVVCRGIPIKANVGLGVLPLADDTLDGDQDWLRLVVSAADDARDRGVGWARYNPPLDQAQQRAFTLLTSLSQAIGTEEGFHLVYQPKIDLPTGRCTGVEALLRWRHPQLGFVSPAEFVPLAEKTALMRPLSDWVLRHAMAQLAQWNARNIPLRLAINVSASDMEDSSFLEEAVRLAKTYDIDLSALELEFTESVLIRDASAVGSVLLRARELGMGIAVDDFGTGYSNWTYLRDLPITAIKLDQSFTRDLAGSPKAQSVTQAVIGLASQLGYRVVAEGIETHDTFHLLQAWGCHEGQGYLIAQPMLPEQLEDWLRRLEHHHHHH	not soluble
MGSDKIHHHHHHTNEDIVKNNVNQPEKVKGNLSLVISSTSNSSRAADNEESGVTDPGIEGESTVTDAVIILNRLDENGNLTKEEFGGYLTKAQLNETTASGETIYNPFFTLANSGWYKVLVVLNPTESIEAIANSQQSTDKSKYEQIAESSYTTTGDITIAAAGQFMMVNKKEIKVDVLSNNYEDPTIKEVEVERVVSKINYVIAKPNNLYPLTVQTTDYAIAETTSGYYIYPDNKAVRLTGLHKAKNLDNDNSDVWIHEGTDGTDRRAFIKTEKTYGQTGEHIFTLLEPFPKFEYYTTSTDGELDWTVKLDKYALVNLSNSVYTARHLTDASWENCKHSASCVFLSKL	not soluble
MSHQEQQEQEIEALEAIYSEEEIHVASRDYPNIELSIQLKSNQYEDPTDDDFDVELGIEFTENYPDEIPIITLNGIEDAFTAERIAESIDKLRSVAEENLGMVMVFAIVSALQDEIGELVDVKKRAKEEKVEIEKEKKEAESRKKFEGTVVTPDTFRAWKDRFDEERKAEIDAAEKERLASLAGRLTGRQLFLRDATLNLSDVTLIGAQDEVEIDESLFDNEELEGLEMDSEEEEEDDEE	soluble
MSLEKFVVQDIQIDGLQRVALGAALLKMPVRVGDSVDSQDVANIIKALYSSGNFEDVKVLRDGNTLMVQVKERPTIASVSFSGNKAIKEEQLKQNLEASSIRVGEALDRTTLSNIEKGLEDFYYSVGKYNATVKAVVTPLPRNRADLKFVFTEGVSAKIQQINFIGNQVFSDEELLSRFNLNVDVAWWNFLADDKYKKQVLAGDIEALRTYYLDRGYLKFQVDSTQVAISPDKKGVYITLNLNEGEPYTVSKVQFRGELMGKEAEFTSLIPFEIGETYNGSAVTRLEESVKKVLGESGYAYPQVRTIPEFDDEKQQVSLVVHVEAGKRVYVRDIRFVGNNSTRDEVLRREMRQMEGSWLNSKDIETGKTRLNRLGFFETVEVQTVRVPGSEDQVDLVYSVKEANSGNVNFGVGYGTESGVSFQVGLQQDNFLGSGNRVGVNAMINDYQKNLTLEYRDPYWNLDGVSLGGKVFYNQFEASEAGIVDYTNESYGTSLTWGFPFDELNRFEFGIGYTHNKIGNLTPYLQVENFLAAQASNIDSGGNLLTDDFDINLSWTRNNLNNSYFPTAGNHQRAFYKMTVPGSDAQYFKLQYDVRQYFPLTKKHEFTLLLRGRLGYGNGYGQTDGKDNLFPFYENFYAGGFTSLRGFGSNSAGPKAVYRDYSGSNNGSDTATDDSVGGNAIALASVELIVPTPFASEEARNQIRTSIFYDMASVWDTEFDYRGKADYGNQYYYDYSDPTNYRSSYGVALQWVSPMGPLVFSLAKPIKKYEGDDEEFFTFTIGRTFEGHHHHHH	not soluble
MAHHHHHHMSALAKKMMEKYGWKEGEGLGKERSGIKSYVKVTRRDPHTATGLGHAADPAQGGSLASTHAVELDAIYGQLHKETRKRQRQSSKARVDQGDTSEDEVDNGGELSDVSSTNSGASSSSSADSKSEGKAAVAARAAVKRQRRAPSSSPSNSGNDGDDRTDSKRSKGEHIGDVTRMSDKELFQRCGGVRLGRAGRHRLFDGKLKRIQDSS	soluble
MGNILIVKLSRRELSYLLSVKKYNDEGKPAKLSWISKDLNVSVASAYEEISHLESKGFLKKSDKGIFITDEGKKAIDSLLRAHRVIETFLVKIGLSPDQACNYTKQFDYSVPDEVIERIYEYLGKPEKCPHGENIPY	soluble
MTDFQKQFFARLNIEEKQKVSFEDLSNIMYAMAQTVPFENLNVLEKNFKEISQENLKEKILVNNRGGLCYELNPTMYYFLKDAGFDVYLVSGTVYNAANSIWAVDSGHIATILKHHNELYLIEVGFGSYLPLAPVPFSGEVVQSVTGDYRIRKEMTEKGNYMLEMRKNDEFLDQSSTDDWTLGYAFYIEEVDEKKQMQHKKLLLNTMAHHLTKYLLL	not soluble
MRCMTLPAYDIAILGAGPVGRVLALLLARLTPQPQRIALLQGGAGLPPTPAGTLGPAADPRVLALNHGSRVLLESLRAWPAHAAEIRHIHVSQRGRLGRTVIDREDFDVPQLGNVVAYAALHAQLEQAVQDCGVTVLSGPPARVDGQDGEGLTVRQGDAALHCRLAVQCDGAGGSDVRRDYAQHAVLTSAHATLPRSGWAWERFTNEGPLAMLPHPQTPEAYSVVWCCAPPRARRLAGLDDEAFSRELTEAFGTRLGRLRSAAPRHVFPLELKARHAQAHGRLATIGNAAQTLHPVAGQGLNLGLRDAAQLAHALPDWLAAPQADPSPLLATFARARLADRWVTAGLTDLMPRIFATGLAPVEHACGLALLGLDIAAPLRAPLARHLLQGLRVLEHHHHHH	soluble
MRDSPTHKEQRAQNTMSDQMPFPFNNFTYFFTLFSKFFSSFHHCTCSLSVSRQYLALDGIYHPLRAAFPNNSTLRRHFTKNRTPRHTGFSPSMTSCSKEHRQGTAPKLPSPNYNSGTEGTRFQI	not soluble
MNQNQNKKTKIVALSMMNSQTSGNPSRGTTKFESYTFDYWQYIDTLVYWGGSSGEGIIVTPSADVIDEAHSNGVPVLGTIFLPPKEYGGKVDWVKTMLKKDEQGQYPFASQMVKVAKTYGFEGWFINEETQGLNADDAANMKALIQQVKKEDSSLQIMWYDAMTKDGKVDWQNQLNDQNATFVQDKAADAMFLNFWWTQNNLADQKLLEKSNLYAKNHNIDPYNIYAGIDVQAKDVQTPVKWNLLEKGNQATQTSIGLYAASATYTNASNWDDFQNRESAFWVNQKADPRQVDHSVNESWTGLSKYVLEKSAISGNEFNTNFNLGNGYNYFKAGQKISEMDWNDRSLAGILPSYRWIIDNEGKNKISPSFDFANAYNGGNSLKFMAEHLDAGKSSNITLFASDLKIAMGAKFSVSMRSDQALKVSAILELANGQKVSIAGDKSLTENWSKLEHHHHHH	soluble
KKKPLIGMVHLKPLPGSYHYNDNFDDIVDFAIKEAKKLEEAGFDAVMIENFGDAPFKKEADKITIASMAVIAKAIKEEVSLPLGINILRNDAIGAYSIAYVVKADFIRVNVLSGVAFTDQGIIEGKAYELAKLKKLLPSKIKVFADVHVKHAYHFIDFESSLLDTVERGLADAVIISGKRTGKEVDIEKLKLAKELVDVPVIVGSGTNYNNLRILWSYADGFIIGTWIKKDGKANNEIDIDRAKKIVNLANKLKM	not soluble
MSLCIIGSGPGGLCMARALKRQGLDYEQFERHGEVGGVWDINNPGTPMYQSAHFISSRDQSGFIDYPMPAHFPDYPSNRQIFEYVRSFAVAFDLYDRIRFNTAVKDVEKEQDGRWLVTLASGERRRYRAVVCATGCNWDPNMPEVKGQFEGTVRHSVTYKNPDEFKGKRVMVIGADNSGADIACDAAKHADKAFISMRRGYHLIPKHLFGMPVDEFGEKGPQLPMWLARPVFQTILRVINGDTRRFGLPRPDHKLFESHPLLNTQLLHYLQHGDIQVKPDVSHYEGQHVVFKDGTREPLDLVLYATGYKWSCPYAAKYFEWQGGRPRLYLSIFSREHHNLFGIGYVETNSSAYKLFDSEAHAVACYLRDQLHQKTQASHFDQLIATDDPDLSGGIKFVKSQRHEVYLEAHALKKYLRKLFHSEGHHHHHH	not soluble
